Assay results as given in the DeepSol protein solubility set.

Assay: soluble on expression in E. coli; label from the status in PepcDB or PDB records

MSLELFRSKTCALCKGRKLMCGRPRCPILEKFRVAKSVESKINKKEIFGASPPSVFVGEFGYPNVRIGPMVPPVEGDTSFMDDPSRWENVTILEIMEYRSMLVMGETNAHVQVKKNLNFLTHIQELAMANKPVDSEILLKKTPKLDLITGGFTPPVGPRETMLKFKLAENPKIPKKTDYIVNDELKANEGMISLYDSGFDEYYIIKLLSTGLLGVNKKLVPTKWSITAAQDLLGKYVKKSILEYSQINEYEVYFKNFLGNRYAVLLIPDIYAYEMLEVWLKGSLFSGESYNVLSDFEDTTGMKGYADEITGAFYACRLSILEYLKKRKKQAKILVFREITPEYYAPVGVWQIRTGVKLAMENRVGRFNNLKSALESIKKHLEVPIDDYKTKSKILKSNDRQITLDKFFEGHHHHHH
soluble on expression in E. coli: not soluble

MAHHHHHHMKDKLRAMGHPAMDAADREDSHAGCFSDSVGMQTYSLNTSLGAMHIMSRLNNEMSFVEDTASGSFGVVKKGVLDLDRQCYAVKQTKRVISGEGDLQQRLQEVYTLSACSHPNVLRYFDGWVEDRAVFVRTEWLSDGSVADFDRPFSEALLRSVIHQIASALHWLLCHHITHRDVKPENILARKMEDGTYTFKLADFGLARPLFRDRPNTGEEFRGTNDDDGDRRYLSPEAFAISEFSQQKGEADVYALGASCVELMGGDPSLVRNGCYTGNFHIYSAELQNLVQWMTRLDPQERPDAFMVALLTVDPALKSTRGFARRMAAIEGLRASVAELEKKVAETNATEKEEGGA
soluble on expression in E. coli: soluble

QQEKEFLESYPQNCPPDALPGTPGNLDSAQEKALAELRKLLEDAGFIERLDDSTLLRFLRARKFDVQLAKEMFENCEKWRKDYGTDTILQDFHYDEKPLIAKFYPQYYHKTDKDGRPVYFEELGAVNLHEMNKVTSEERMLKNLVWEYESVVQYRLPACSRAAGHLVETSCTIMDLKGISISSAYSVMSYVREASYISQNYYPERMGKFYIINAPFGFSTAFRLFKPFLDPVTVSKIFILGSSYQKELLKQIPAENLPVKFGGKSEVDESKGGLYLSDIGPWRDPKYIGPEGEAPE
soluble on expression in E. coli: soluble

MAHHHHHHMNLNVSKDVNNYMKINGIIKKVDIKRYYNKKLNNWSYEDNAKEFDKKDEKEYGSKYEYNNKFINEEEKKDEEKKYRYDEKIHKGLYSEDNSTSMNNRYNNNESTYKMPKEILNRHEKIDLNSLPIDEEIINNLKIILNIEKLYMYQYIIYNEILKNSKHLLIYNKTGTGKTLSYLLPLIQKLINDKFDCNKKVLIITQNIYLCKQLYIYILSIYPTLNVCILSDEKESYNMNNNINNDIIVNIKRNNINPNDKENNDMCDEKYGIHFYLCTPNKLEYFIKNYKNKSRNDKNVMNNILNNINTIVIDEFDYIVEYRKNILNFFFKKDLFNEIHNNNNIRDKNRFNHDIFNKSNYNIYLFTANINEVIKKKIYEHLNGFVFFDFINGIKEHIQKQVAEQHNFNIDVLKNSENVVQLLNKENKNESLCNLNITHFVCKINSASKYKYVCYFLEEFFFHKQKISQKVYNDMVYDEYDKLNYRNMIPMEENKFVNNSEKEGNMKRSNADKINKCIIFANTKEEVEKLYEISLLKPHAVMMHSELLTIQKNENINLFKVGKKNVLITTDIISRGLDIDNVIFILNYSPPTSPNDYIHRSGRTGRGKEKGICLTMYHKYEYRNVDKIMKYTKNKFEVILCPK
soluble on expression in E. coli: not soluble

MGSDKIHHHHHHMQEYKACAAHTDILKKYGFKVEKGFANFETAYKASYKKQNGPRIAILAEYDALPKIGHGCGHNAYGVTSIAGGILIKELIQKLDLQGEILVIGTPAEETNGAKVDMAKLGIFNDIDVAMSVHPSGEAHIRSGKSHAMEALQFTFKGKTAHAAASPHEGINALDGVLNLFNSINALRQQILSSARIHGIISNGGEAANIIPDLAIANFYVRAETLEYLKELVKKVKNCAKGAALASDTELEITNYETSFANLVTNKKLMKLYEKNLRTLGVTDIRDKEGLGSTDMGDVSHCCPTIHPYFPLTTRHLVGHTIEFATATIQEEAYKGMKEACLAMALSCLDIFEKPEILKEIKEEFYQTFKK
soluble on expression in E. coli: not soluble

GRYTQIRFDEDIKRPFPELQQEFLSLLRKSVSEAVQGQKAGTFLSGGTDSSTLAGILTEVTGEPAKTYSIGFEATGYDEMHYARIAARHFATDHHEYYVTPDDVVETIPLIASVFDQPFGNASALPAYYCGRMARNDGLDLLLGGDGGDELFGGNVRYAKQYIFSLYDKIPAPLRNYLLSPFILSLPENKGPKLLRKARSYVAQATVPMPHRMETYNLLAHYGFETVFSPELLAKIDTAQPALLIERTYQDVSHARSLINRMLAFDWKFTLADNDFPKVVQACHLAGMEVAFPFVNDEILAFSLALPPEQKLKGTQLRYFFKQALRGFLPDEIITKQKQGFGLPFGVWLQTHRPLREIAADSLSDLKSRNIIRTDFIDQLLDQHLHEHASYHGTMVWLLMMLEYWFKQH
soluble on expression in E. coli: not soluble

MTTFRQHRWQSFLQGYEQRARILISCPDRPGIVAAVTSFLYEQGANIVESSQYSTDPEGGTFFLRLEFDCPNIAERKEEIEAAFAPIAAEFEMRWQLRLHNDIRRIAIFVSKAEHCLLELLWQWQAGELIADIALVISNHPDLRETVESFGIPYVHIPVTKETKADAEAEQIRLLRDYQIDTIVLARYMQILSPAFVAEFSGRIINIHHSFLPAFIGARPYERAYERGVKLIGATSHYVTDDLDEGPIIEQDVARVDHRHHPDDLKRIGRLIEKTVLARALRWHLEDRVIIHGNKTIVFY
soluble on expression in E. coli: soluble

MGSDKIHHHHHHMALWQYSFRGGDDMKFAHLERLNLTLRALAPVFIGSGEQLGKKEYIFDSPNALIYFPDFPRLVAFLKERSLLAEYEKFLSTPRLKDIRVFLEENGISAADYPSFVRYSIAAGEAAHIENFREVLTFIKDSKGYPYIPGSSLKGAIRTALATYLLKRGDWERDRRNIEGSDSSVPARKYLARESSTVEKKVFYQLDIRNPKDGKEISSPINDLMQGIRISDSAALSFENLTLTGKYDRKPDGTVNLLPIFRECLTPGSEAHLQLTLDLPMLARVGLNAGIIEEALHDFADEHYAHFEQYFAELPEDASVAAKEGVDIFLGGGVGYVSKTLTYNLFPQRENAVSLAAKILTKQFSPKHGHSKDASQYKVSPHILKTTMYAGEYYHMGKCELIITR
soluble on expression in E. coli: not soluble

MTDDKKIRAAIVGYGNIGRYALQALREAPDFEIAGIVRRNPAEVPFELQPFRVVSDIEQLESVDVALVCSPSREVERTALEILKKGICTADSFDIHDGILALRRSLGDAAGKSGAAAVIASGWDPGSDSVVRTLMQAIVPKGITYTNFGPGMSMGHTVAVKAIDGVKAALSMTIPLGTGVHRRMVYVELLPGHNLEEVSAAIKADEYFVHDETHVIQVDEVDALIDMGHGVRMVRKGVSGSTQNQRMSFDMEINNPALTGQVLVCAARAAMRQQPGAYTLQEIPVIDLLPGDREQWIGKLC
soluble on expression in E. coli: soluble

MSLNRPAPVEISYENMRFLITHNPTNATLNKFTEELKKYGVTTLVRVCDATYDKAPVEKEGIHVLDWPFDDGAPPPNQIVDDWLNLLKTKFREEPGCCVAVHCVAGLGRAPVLVALALIECGMKYEDAVQFIRQKRRGAFNSKQLLYLEKYRPKMRLRFRDTNGEGHHHHHH
soluble on expression in E. coli: soluble

MCISKIDMAKVKKFFKEYLFAKFQCKNRELYRQLKDYDPKDDQKYLKWEHFVEYVEQVLEALDKTSAQIIKEIYIQNKRICELPYSYSTYYAYRKKAIIELLAYLDLKI
soluble on expression in E. coli: soluble

MGSDKIHHHHHHMDITPFLDKKSKTPLYEQLYTFFKQEISHARITKGTRLPSKRRLSSLLDVSTATIERAYEQLTAEGYVKSKPKIGWFAAEVEPGFPTAPDHFQQSVQPGLHQKNAPAIDFHQGSVDPTLFPFNAWRKSIVKSLDRYSGSFHTSGDPQGEYELRHMIARFVRLSRGVNCEPGQIIIGAGTTVLLQNLCLSLKPGTKIGFEEPGFHRSRRMFEANHMDVTPICSDAEGVLPDELYRQNPYLMYTTPSHQFPIGTIMTITRRQELLAWAAETNSFIIEDDYDGEFRYSGHPIPSLQGLDPNGRVIYLGTFSKSLLPSLRLSFMIVPPELMEPIQNNVQLMKQTVSAHSQLALADFIETGEWQKHINRMRSLYRKKHAVLLEAIRSELGNTVEILGKNSGLHILLRLLFPASEEEAIQAAADHGVTLYPVSPSYIEQTPFTSVLIGYGGLSEEDIRLGIQKLKTAWAPLISSY
soluble on expression in E. coli: not soluble

SAGVRGLRLVERYTQDTANIINNVIKLDKQKVEAFSIQYKDPKNFRVQVKINAKGNYKKDTVKTYLSQVGLSDGDLNDTGTLEAEIIYTYMPPAASFFSASKFDKLTRAINFNTNLRIQIIGKDSVMTKLLQQSSFVKQLADQKFQDQSINLLPYVLYSI
soluble on expression in E. coli: not soluble

MGSDKIHHHHHHMIFASDLDQTLIYSRKSFRAHIEDNSIQLIETLDGKEISFITYKTITLLIKLQLHSYFIPVTTRTIEQFQRITLFQNEIIPEYAITSNGGNILHNGKQDVTWNKEIKKRISVECIERNDILKEFEQIAHKDWVISQKTADDLFHYCIIKRENIPYDELSSFTSWLDKQGWNHSLQGRKLYFVPKPINKWDAVQYIQEILQMDTIITAGDSLLDLCMLEKANYAFAPLHGELGATYNHLQPHIVKTDAIGIYAAEEIVSKSLQIIHSSSPTS
soluble on expression in E. coli: not soluble

MSKSALHAFIDRARADEDFRSKLAHLDPNQIIEFAGQHGFLFSDEIKGRFINRWSGVYFCPQAIEVGQLCPALVPDGYKNLIHYAQSTCSSSNLSEEERDFRSGIKY
soluble on expression in E. coli: not soluble

MIYDVFLNFSGEDVRGTFLNHFFKELERKSIIAFKDNESERSQNLSPELTHAIRESRITVVVFSKNYSSSTWCLNELLQVYECYQSMDLPVIPIFYGLDPSHVRKQTGEFGKNFEKTCRNETEACVYQWRRALCDVSNFLGYHSPNWANEATMIEQVANDVLFKLNLTPSSDFSEFVGIEDHIAAMNSVDKR
soluble on expression in E. coli: soluble

MPVHSRGDKKETNHHDEMEVDYAENEGSSSEDEDTESSSVSEDGDSSEMDDEDCERRRMECLDEMSNLEKQFTDLKDQLYKERLSQVDAKLQEVIAGKAPEYLEPLATLQENMQIRTKVAGIYRELCLESVKNKYECEIQASRQHCESEKLLLYDTVQSELEEKIRRLEEDRHSIDITSELWNDELQSRKKRKDPFSPDKKKPVVVSGPYIVYMLQDLDILEDWTTIRKAMATLGPHRVKTEPPVKLEKHLHSARSEEGRLYYDGEWYIRGQTICIDKKDECPTSAVITTINHDEVWFKRPDGSKSKLYISQLQKGKYSIKHS
soluble on expression in E. coli: soluble

MGSDKIHHHHHHMVGIVLASHGNFAEGIYQSAEMIFGKQQNVQTVTLSPNEGPEDFLNKLKQAIDSFDDQKQVLLLIDLWGGTPFNQSSGLLSGHEDSWAVVTGMNLPMVIEAYGSRSSMDSAQEIATHIIETGKDGIRIKPESLEPKKATATVKSSGQPHGTIAPGTVLGDGKIKYVLARVDSRLLHGQVAMSWTKSTNPNRILVVSDSVAKDRLRKSMIVEAAPPGVNTNVIPIKKMIEVAKDPRFGNTKALVLFENPEDALKTIEGGVDIKELNIGSMSHAVGKVAVNKVLSLGKEDVEAFDGLKKLGVKFDVRKVPGDSSENMDNIVIKLEKIYQVLNLKKIRRV
soluble on expression in E. coli: not soluble

GDKLLPKTLSKEIVSEPFAKNQLREKARLTNIKGLEIPRVSYTLDDDDFITDVETAKELKAKGDTVKFTTNKFKVFAAISDTVIHGSDVDLVNWVENALQSGLAAKERKDALAVSPKSGLEHMSFYNGSVKEVEGADMYDAIINALADLHEDYRDNATIYMRYADYVKIISVLSNGTTNFFDTPAEKVFGKPVVFTDAAVKPIVGDFNYFGINYDGTTYDTDKDVKKGEYLFVLTAWYDQQRTLDSAFRIAKA
soluble on expression in E. coli: soluble
